From patent publication WO2015129919A1 (dated 2015)
Changes are numbered by the printed parent chain. Blank lines part the entries; values can stand above or below the binder they belong to.

What was measured:
[1] = target: T1, SLC6A6 (solute carrier family 6 (neurotransmitter transporter, taurine), member 6), human, native on the cell … (human, UniProt P31641 1-620); test: flow cytometry on 293T cells (express SLC6A6), antibody 10 ug/mL
T1 construct: also called native SLC6A6; taurine transporter
T1 sequence: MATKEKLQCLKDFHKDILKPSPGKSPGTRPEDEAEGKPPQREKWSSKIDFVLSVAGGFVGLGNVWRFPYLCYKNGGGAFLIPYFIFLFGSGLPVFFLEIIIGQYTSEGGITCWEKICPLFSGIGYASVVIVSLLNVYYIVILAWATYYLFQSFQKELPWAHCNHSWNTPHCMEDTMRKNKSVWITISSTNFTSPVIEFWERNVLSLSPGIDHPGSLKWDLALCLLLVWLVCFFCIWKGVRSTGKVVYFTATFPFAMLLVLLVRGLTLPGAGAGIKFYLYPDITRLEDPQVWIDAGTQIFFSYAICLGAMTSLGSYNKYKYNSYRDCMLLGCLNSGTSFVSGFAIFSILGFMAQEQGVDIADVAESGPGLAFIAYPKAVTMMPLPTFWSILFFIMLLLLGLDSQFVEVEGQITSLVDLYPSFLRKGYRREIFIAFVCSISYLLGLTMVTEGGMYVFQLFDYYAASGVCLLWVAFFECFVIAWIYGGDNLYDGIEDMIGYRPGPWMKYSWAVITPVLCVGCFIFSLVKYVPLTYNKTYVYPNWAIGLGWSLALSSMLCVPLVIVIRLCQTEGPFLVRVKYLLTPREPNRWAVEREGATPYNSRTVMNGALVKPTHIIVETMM

[2] = target: T1, SLC6A6 (solute carrier family 6 …); test: flow cytometry on HCT116 cells, antibody 10 ug/mL
[3] = target: T1, SLC6A6 (solute carrier family 6 …); test: flow cytometry on HCT116 cells
[4] = target: T2, SLC6A6 extracellular region partial protein (E. coli recombinant, amino acid residues 143 to 216, C-terminal … (human, UniProt P31641 143-216)); test: competition inhibition test; 402 at 10 ug/mL pre-incubated with recombinant SLC6A6 extracellular region partial protein at 15 ug/mL, read out by immunofluorescence on HCT116 cells
T2 construct: also called partial protein of the extracellular region of SLC6A6; SLC6A6 partial protein for screening
T2 sequence: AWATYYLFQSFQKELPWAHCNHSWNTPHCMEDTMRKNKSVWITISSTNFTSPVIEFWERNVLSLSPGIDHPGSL

[5] = target: T1, SLC6A6 (solute carrier family 6 …); test: immunohistochemistry on breast cancer and uterine cancer tissue sections

- binding result [1]: binds
B1: monoclonal antibody produced by mouse-mouse hybridoma 419 (antibody, V domains shown)
VH: IQLQQSGPELVKPGASVKVSCKAFGYAFTRHNMYWVKQRHGKCLEWIGYIDPFNGGTSYNQKFKGKATLTVDKSSSTAYMHLNSLTSEDSAVYYCARVYGNYAWFAYWGQGTLVTVSA
VL: DIVMTQSHKFMSTSVGDRVSITCKASQDVSTAVAWYQQIPGQSPKLLIYSSSYRYTGVPDRFTGSGSGTDFTFTISSVQAEDLAVYYCQQHYNTPWTFGGGTKLEIK
notes: Mouse IgG from the hybridoma

- binding result [2]: binds
B2: antibody clone 402 human-mouse chimeric antibody (antibody, human IgG1, kappa, V domains shown)
VH: QVKLQQSGPELVKPGASVKVSCTASGYAFTQYNLYWVKLRHGKCPKWIGSIDPYIGGTTYNQQFKDKVTLTVDKSSSTAYLHLNSLTSEDSAIYYCARWWDGYFDVWGAGTTVTVSS
VL: QIVLTQSPAIMSASLGERVTLTCTASSSVISRYLHWYQVKPGSSPKLWIYSTSNLASGVPTRFSGSGSGTSYSLTISNMEAEDAATYYCHQYHRSPLTFGAGTKLELTR
notes: Human IgG1 heavy chain constant region and human kappa constant region, expressed in Expi293F cells; also called c402 mAb

- binding result [3]: binds
- binding result [4]: binds
B3: monoclonal antibody produced by mouse-mouse hybridoma 402 (antibody, V domains shown)
VH: VKLQQSGPELVKPGASVKVSCTASGYAFTQYNLYWVKLRHGKCPKWIGSIDPYIGGTTYNQQFKDKVTLTVDKSSSTAYLHLNSLTSEDSAIYYCARWWDGYFDVWGAGTTVTVSS
VL: QIVLTQSPAIMSASLGERVTLTCTASSSVISRYLHWYQVKPGSSPKLWIYSTSNLASGVPTRFSGSGSGTSYSLTISNMEAEDAATYYCHQYHRSPLTFGAGTKLELT
notes: Mouse IgG from the hybridoma

- binding result [3]: binds
B4: monoclonal antibody produced by mouse-mouse hybridoma 430 (antibody, V domains shown)
VH: B3 VH with V1I, K2Q, L10V, A15T, K18R, T57A, T58N
VL: B3 VL with L21M, I30S, S31F, T61S, F63I, S73F
notes: Mouse IgG from the hybridoma; also called antibody clone 430; 430 antibody

- binding result [5]: binds
B5: monoclonal antibody produced by mouse-mouse hybridoma 205 (antibody, V domains shown)
VH: VKLQQSGPELVKPGASVKMSCKASGYTFTSYVMHWVKQKPGQGLEWIGYINPYNDGTKYNEKFKGKATLTSDKSSSTAYMELSSLTSEDSAVYYCARRKAWFAYWGQGTLVTVSA
VL: DIQMTQSPASQSASLGESVTITCLASQTIGTWLAWYQQKPGKSPQLLIYAATSLADGVPSRFSGSGSGTKFSFKISSLQAEDFVSYYCQQLYSTPLTFGGGTKLEIK
notes: Mouse IgG from the hybridoma

- binding result [3]: binds
B6: monoclonal antibody produced by mouse-mouse hybridoma 303 (antibody, V domains shown)
VH: VQLQQPGAEFVKPGTSVKLSCKASGYNFTRYWINWVKLRPGQGLEWIGNIYPATNGINYNEKFKSKATLTVDTFSSTAYMQLSSLASEDSGLYYCARCKTMLSRCAWFPYWGQGTLVTVSA
VL: DIQMTQTTSSLSASLGDRVTINCRASQDISNYLNWYQQKPDGTVKLLIYDTSRLHSRVPSRFSGSGSGTDYSLTISNLEQEDIATYFCQQGNMLPWTFGGGTKLEIK
notes: Mouse IgG from the hybridoma

- binding result [3]: binds
B7: monoclonal antibody produced by mouse-mouse hybridoma 422 (antibody, V domains shown)
VH: VQLQQSGPEVVKPGPSLRMSCKASGYFFTGNSMNWVKKTHGRSLEWIGLIDLSNGETRFNQKFKGKATLTVDKSSGTAYMELLNLTSEDSAVYYCASRSAMIMPCFSHWGQGTLVTVSA
VL: DIVMTQSHNFMSTSIGDRVNITCKASQDVATAVAWFQQKPGQSPKLLIYWTSTRHTGVPDRFTGSGYGTDFTLTISHVQSEDLADYFCQQYDTYPYTFGGGTKLEIK
notes: Mouse IgG from the hybridoma; also called antibody clone 422
